Experimental data reported in patent US20190382481A1 (Janssen / Centocor, published 2019).
Positions count from the first letter of the chain named. Numbers in names are those of the source.

Experiments:
human CD33 [1] = biological target: T1, human CD33 (human, UniProt P20138 18-364); assay: cell-based or functional assay
Human CD33-C2-HSA [2] = biological target: T2, Human CD33-C2-HSA (human); assay: IBIS SPRi off-rate screen
T2 construct: C2 domain of human CD33 fused to HSA; also called C33W4; huCD33-C2-HSA

Human CD33-V-HSA [3] = biological target: T3, Human CD33-V-HSA (human); assay: IBIS SPRi off-rate screen
T3 construct: V domain of human CD33 fused to HSA; also called C33W3; huCD33-V-HSA

Human CD33-V-HSA [4] = biological target: T4, Human CD33-V-HSA (human); assay: SPRi off-rate screen, domain constructs
T4 construct: V domain of human CD33 fused to HSA (C58S) and six-histidine tag; also called C33W3; huCD33-V-HSA

Human CD33-C2-HSA [5] = biological target: T5, Human CD33-C2-HSA (human); assay: SPRi off-rate screen, domain constructs
T5 construct: C2 domain of human CD33 fused to HSA (C58S) and six-histidine tag; also called C33W4; huCD33-C2-HSA

human CD33 [6] = biological target: T1, human CD33; assay: cell-based or functional assay; remark: listed apart in the source
cyno CD33 = cyno CD33 (cynomolgus monkey); assay: cell-based or functional assay
human CD33 [7] = biological target: T1, human CD33; assay: cell-based or functional assay; remark: listed apart in the source
human CD33 [8] = biological target: T1, human CD33; assay: cell-based or functional assay; remark: listed apart in the source
[9] = biological target: cynomologous (cyno) rCD33 (cyno); assay: method not stated
[10] = biological target: T6, human recombinant (r)CD33 (human, UniProt P20138 18-259); assay: method not stated
T6 construct: also called human rCD33

human rCD3e = biological target: T7, human rCD3e (human, UniProt P07766 23-126); assay: method not stated
T7 construct: also called human recombinant CD3 epsilon

cyno monkey rCD3e = biological target: T8, cyno monkey rCD3e (cyno monkey, UniProt Q95LI5 22-117, limits assumed); assay: method not stated
T8 construct: also called cyno recombinant CD3 epsilon
T8 sequence (looked up): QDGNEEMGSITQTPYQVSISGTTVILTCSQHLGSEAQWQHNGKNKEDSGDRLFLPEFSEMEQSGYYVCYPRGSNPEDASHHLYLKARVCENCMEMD

[11] = biological target: CD33 on human CD33 expressing AML cell lines and primary human cells (endogenous) (human, UniProt P20138 18-364); assay: cell-based or functional assay
Sequence of CD33 on human CD33 expressing AML cell lines and primary human cells (endogenous) (P20138 18-364 limits assumed): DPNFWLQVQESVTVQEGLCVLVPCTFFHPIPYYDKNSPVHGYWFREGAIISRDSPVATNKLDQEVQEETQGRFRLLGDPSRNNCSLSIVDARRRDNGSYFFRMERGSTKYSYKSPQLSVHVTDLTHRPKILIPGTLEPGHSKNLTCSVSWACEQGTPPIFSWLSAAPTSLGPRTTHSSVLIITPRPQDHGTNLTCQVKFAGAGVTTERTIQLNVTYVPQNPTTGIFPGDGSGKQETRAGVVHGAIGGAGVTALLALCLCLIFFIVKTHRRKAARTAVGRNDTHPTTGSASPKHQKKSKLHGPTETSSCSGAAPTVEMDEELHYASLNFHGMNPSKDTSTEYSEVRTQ

T1 sequence (P20138 18-364 limits assumed): as above
Sequence of cyno CD33 (cynomolgus monkey) (chain, as listed by the source limits assumed): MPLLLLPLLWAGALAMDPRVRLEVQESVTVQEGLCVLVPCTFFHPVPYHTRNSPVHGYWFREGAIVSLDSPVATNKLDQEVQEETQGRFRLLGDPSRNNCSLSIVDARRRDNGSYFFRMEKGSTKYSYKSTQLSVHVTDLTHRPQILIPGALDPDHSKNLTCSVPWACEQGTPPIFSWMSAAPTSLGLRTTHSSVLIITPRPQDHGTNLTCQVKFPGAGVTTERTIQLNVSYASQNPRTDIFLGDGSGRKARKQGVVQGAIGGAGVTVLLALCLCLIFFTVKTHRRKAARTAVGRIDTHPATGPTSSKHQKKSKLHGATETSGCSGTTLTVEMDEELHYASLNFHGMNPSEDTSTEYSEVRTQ
T6 sequence (P20138 18-259 limits assumed): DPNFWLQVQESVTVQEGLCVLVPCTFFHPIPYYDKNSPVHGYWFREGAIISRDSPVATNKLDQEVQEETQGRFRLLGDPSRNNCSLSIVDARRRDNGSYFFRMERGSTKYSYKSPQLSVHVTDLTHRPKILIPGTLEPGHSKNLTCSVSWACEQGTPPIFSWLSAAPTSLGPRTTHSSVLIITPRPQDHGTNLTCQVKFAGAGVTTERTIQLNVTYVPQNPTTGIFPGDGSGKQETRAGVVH
Sequence of cynomologous (cyno) rCD33 (cyno) (chain, as listed by the source limits assumed): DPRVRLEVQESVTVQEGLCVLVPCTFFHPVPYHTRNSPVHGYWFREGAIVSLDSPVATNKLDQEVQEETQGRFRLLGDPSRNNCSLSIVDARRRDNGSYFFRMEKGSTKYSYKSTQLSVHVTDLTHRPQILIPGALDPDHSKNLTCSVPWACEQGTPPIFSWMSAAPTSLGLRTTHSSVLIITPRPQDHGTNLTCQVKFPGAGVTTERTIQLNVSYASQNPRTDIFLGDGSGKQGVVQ
T7 sequence (P07766 23-126 limits assumed): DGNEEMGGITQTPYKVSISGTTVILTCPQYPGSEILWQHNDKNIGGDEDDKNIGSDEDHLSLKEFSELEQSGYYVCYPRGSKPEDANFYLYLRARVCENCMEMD

B1: C33B782 (antibody, human IgG4 S228P, lambda, F234A L235A)
heavy: not shown
light: SYELTQPPSVSVSPGQTASITCSGNKLGAKFASWYQQKPGQSPVLVIYQDNKRPSGIPERFSGSNSGNTATLTISGTQAVDEADYYCQAWDSSTVVFGGGTKLTVLGQPKAAPSVTLFPPSSEELQANKATLVCLISDFYPGAVTVAWKADSSPVKAGVETTTPSKQSNNKYAASSYLSLTPEQWKSHRSYSCQVTHEGSTVEKTVAPTECS
- EC50 (nM), CD33 internalization assay (Protein A-MMAF cell viability, MOLM13) (human CD33 [1]): 0.88 nM

B2: C33B782 (antibody, human IgG4 S228P, lambda, F234A L235A)
heavy: not shown
light: B1 light
notes: huIgG4 PAA; HC C33H72, LC C33L40 (same V region as C33B77); also called C33F82
- binding result (Human CD33-C2-HSA [2]): no binding
- binding result (Human CD33-V-HSA [3]): no binding

B3: C33B778 (antibody, human IgG4 S228P, lambda, F234A L235A)
heavy: not shown
light: B1 light with N25D, A29D, F31Y, S33C, N51G, S66F, T69K, V80M, S92R, S93N
notes: huIgG4 PAA; HC C33H66, LC C33L60 (same V region as C33B73); also called C33F78
- binding result (Human CD33-V-HSA [3]): no binding

B4: C33B778 (antibody, human IgG4 S228P, lambda, F234A L235A)
heavy: not shown
light: B1 light with N25D, A29D, F31Y, S33C, N51G, S66F, T69K, V80M, S92R, S93N
notes: huIgG4 PAA; OMNIRat campaign; also called C33H66/C33L60
- binding result (Human CD33-V-HSA [4]): no binding

B5: C33B782 (antibody, human IgG4 S228P, lambda, F234A L235A)
heavy: not shown
light: B1 light
notes: huIgG4 PAA; OMNIRat campaign; also called C33H72/C33L40
- binding result (Human CD33-V-HSA [4]): no binding
- binding result (Human CD33-C2-HSA [5]): no binding

B6: C33B792 (antibody, human IgG4 S228P, lambda, F234A L235A)
heavy: not shown
light: B1 light with N25D, A29N, F31Y, N51T, F61V, V80M, Y86H
notes: huIgG4 PAA; OMNIRat campaign; also called C33H87/C33L35
- binding result (Human CD33-V-HSA [4]): no binding
- binding result (Human CD33-C2-HSA [5]): no binding

B7: C33B792 (antibody, human IgG4 S228P, lambda, F234A L235A)
heavy: not shown
light: B1 light with N25D, A29N, F31Y, N51T, F61V, V80M, Y86H
notes: huIgG4 PAA; HC C33H87, LC C33L35 (same V region as C33B87); also called C33F92
- binding result (Human CD33-C2-HSA [2]): no binding
- binding result (Human CD33-V-HSA [3]): no binding

B8: C33B836 (antibody, human IgG4 S228P, lambda, F234A L235A)
heavy: not shown
light: QSALTQPASVSGSPGQSITISCTGTSSDVGDYNYVSWYQQHPGKVPKLMIYDVSNRPSGVSNRFSGSMSGNTASLTISGLQAEDEADYYCSSYSSSSALEVFGGGTKLTVLGQPKAAPSVTLFPPSSEELQANKATLVCLISDFYPGAVTVAWKADSSPVKAGVETTTPSKQSNNKYAASSYLSLTPEQWKSHRSYSCQVTHEGSTVEKTVAPTECS
- EC50 (nM), CD33 internalization assay (Protein A-MMAF cell viability, MOLM13) (human CD33 [1]): 0.04 nM

B9: C33B836 (antibody, human IgG4 S228P, lambda, F234A L235A)
heavy: not shown
light: B8 light
notes: huIgG4 PAA; OMNIRat campaign; also called C33H80/C33L73
- binding result (Human CD33-C2-HSA [5]): no binding

B10: C33B836 (antibody, human IgG4 S228P, lambda, F234A L235A)
heavy: not shown
light: B8 light
notes: huIgG4 PAA; HC C33H80, LC C33L73 (same V region as C33B48); also called C33F53
- binding result (Human CD33-C2-HSA [2]): no binding

B11: C3CB189 (bispecific antibody, human IgG4 S228P, kappa, lambda, F234A L235A)
heavy 1: not shown
light 1: not shown
heavy 2: QVQLQQSGPRLVRPSQTLSLTCAISGDSVFNNNAAWSWIRQSPSRGLEWLGRTYYRSKWLYDYAVSVKSRITVNPDTSRNQFTLQLNSVTPEDTALYYCARGYSSSFDYWGQGTLVTVSSASTKGPSVFPLAPCSRSTSESTAALGCLVKDYFPEPVTVSWNSGALTSGVHTFPAVLQSSGLYSLSSVVTVPSSSLGTKTYTCNVDHKPSNTKVDKRVESKYGPPCPPCPAPEAAGGPSVFLFPPKPKDTLMISRTPEVTCVVVDVSQEDPEVQFNWYVDGVEVHNAKTKPREEQFNSTYRVVSVLTVLHQDWLNGKEYKCKVSNKGLPSSIEKTISKAKGQPREPQVYTLPPSQEEMTKNQVSLTCLVKGFYPSDIAVEWESNGQPENNYKTTPPVLDSDGSFLLYSKLTVDKSRWQEGNVFSCSVMHEALHNHYTQKSLSLSLGK
light 2: QSALTQPASVSGSPGQSITISCTGTSSNIGTYKFVSWYQQHPDKAPKVLLYEVSKRPSGVSSRFSGSKSGNTASLTISGLQAEDQADYHCVSYAGSGTLLFGGGTKLTVLGQPKAAPSVTLFPPSSEELQANKATLVCLISDFYPGAVTVAWKADSSPVKAGVETTTPSKQSNNKYAASSYLSLTPEQWKSHRSYSCQVTHEGSTVEKTVAPTECS
- Primary AML Cell Killing EC50 (nM), ex vivo AML patient whole blood (human CD33 [6]): 0.578 nM
- CD33^+ CD14^+ Killing EC50 (nM), ex vivo cynomolgus whole blood (cyno CD33): 3.6 nM
- T cell activation EC50 (nM), ex vivo cynomolgus whole blood (cyno CD33): 0.02 nM
- IFN-gamma release, Median EC50 (human CD33 [7]): 160 pM
- IL-1beta release, Median EC50 (human CD33 [7]): 45 pM
- IL-2 release, Median EC50 (human CD33 [7]): 346 pM
- IL-4 release, Median EC50 (human CD33 [7]): 78 pM
- IL-8 release, Median EC50 (human CD33 [7]): 42 pM
- IL-10 release, Median EC50 (human CD33 [7]): 123 pM
- IL-13 release, Median EC50 (human CD33 [7]): 34 pM
- TNF-alpha release, Median EC50 (human CD33 [7]): 208 pM
- CD33^+ CD14^+ Killing EC50 (nM), ex vivo human whole blood (human CD33 [8]): 1.16 nM
- MOLM13 Killing EC50 (nM), ex vivo human whole blood (human CD33 [8]): 0.168 nM

B12: C3CB189 (bispecific antibody, human IgG4 S228P, kappa, lambda, F234A L235A)
heavy 1: not shown
light 1: not shown
heavy 2: B11 heavy 2
light 2: B11 light 2
notes: Fully human IgG4-PAA bispecific made by Fab-arm exchange; CD33 arm C33B904 (C33H252/C33L118), CD3 arm CD3B376 (CD3H219/CD3L150; F405L, R409K); also called C33B904 × CD3B376
- Kd [9]: 363 pM
- Kd [10]: 0.89 pM
- Kd (human rCD3e): 151000 pM
- Kd (cyno monkey rCD3e): 43800 pM
- T cell activation (CD25) in human whole blood with Kasumi-1, median EC50 [11]: 85 pM
- T cell activation (CD25) in human whole blood with MOLM-13, median EC50 [11]: 37 pM
- T cell activation (CD25) with KG-1 target cells, median EC50 [11]: 66.4 pM
- T cell activation (CD25) with Kasumi-1 target cells, median EC50 [11]: 43.2 pM
- T cell activation (CD25) with MOLM-13 target cells, median EC50 [11]: 28.3 pM
- T cell activation (CD25) with OCI-AML3 target cells, median EC50 [11]: 50 pM
- T cell-mediated cytotoxicity of KG-1, median EC50, 6 donors, 48 h [11]: 168 pM
- T cell-mediated cytotoxicity of Kasumi-1, median EC50, 6 donors, 48 h [11]: 50 pM
- T cell-mediated cytotoxicity of Kasumi-1 spiked in human whole blood, median EC50, 48 h [11]: 124 pM
- T cell-mediated cytotoxicity of MOLM-13, median EC50, 6 donors, 48 h [11]: 131 pM
- T cell-mediated cytotoxicity of MOLM-13 spiked in human whole blood, median EC50, 48 h [11]: 111 pM
- T cell-mediated cytotoxicity of OCI-AML3, median EC50, 6 donors, 48 h [11]: 183 pM
- ex vivo cytotoxicity of CD33+ blasts in AML patient whole blood, median EC50 [11]: 365 pM

B13: C33B937 (antibody, human IgG4 S228P, lambda, F234A L235A, V domains shown)
VH: QVQLVESGGGVVQPGRSLRLSCVASGFTFSSYGMHWVRQAPGKGLEWVAVISYDGSNKYYADSVKGRFTISRDNSKNTLYLQMNSLRAEGTAVYYCAKDFRSFDWLPPDSASYHGMDVWGQGTTVTVSS
VL: SYELTQPPSVSVSPGQTASITCSGDKLGDKYASWYQQKPGQSPVLVIYQDGKRPSGIPERFSGSNFGNKATLTISGTQAMDEADYYCQAWDRNTVVFGGGTKLTVLG
- EC50 (nM), CD33 internalization assay (Protein A-MMAF cell viability, MOLM13) (human CD33 [1]): 1.92 nM
